Results taken from the supplement of paper PMC11208486.
± gives the uncertainty stated by the source.

How the values were obtained:
[1] = specific initial activity, cyclohex-2-enone reduction (U mg-1); higher = more active; conditions: co-solvent: methanol
Protocol: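 Specific initial activity of purified ene reductases with 10 mM cyclohex-2-enone and 0.2 mM NAD(P)H in 50 mM sodium phosphate pH 7.4 with 0-45% (v/v) ethanol or methanol, at set reaction temperatures of 25-45 °C. NAD(P)H depletion was followed at 340 nm for 480 s, in triplicate.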

[2] = melting temperature (ThermoFMN); higher = more thermostable
Protocol: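 Purified His-tagged ene reductases (1 mg/ml) in 50 mM sodium phosphate pH 7.4 with 0-30% (v/v) organic co-solvent. Melting temperature was measured by the ThermoFMN assay (FMN fluorescence, 20-90 °C at 1 °C/min, inflection point, triplicate). Specific initial activity was measured with 10 mM cyclohex-2-enone and 0.2 mM NAD(P)H (NADH for LacER) as A340 depletion, at room temperature (DMSO, 2-propanol, n-propanol) or 25 °C (EtOH, MeOH), in triplicate. The TsOYE Tm is above the 90 °C measurement range.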

“MNPKYKPLFEPFTFKSGVTINNRIAVAPMTHYASNEDGTISEAELDYIIPRSKEMGMVITACANVTPDGKAFPGQPAIHDDSNIPGLKKLAQAIQAQGAKAVVQIHHGGIECPSELVPQQDVVGPSDVFDNGKQIARALTEEEVENIVKAFGEATRRAIEAGFDGVEIHGANGYLIQQFYSPKTNQRTDRWGGSDEKRLAFPLAIVDEVKKAASEHAKGAFLVGYRLSPEEPETPGLTMTETYTLVDALGDKELDYLHISLMDVNSKARRGADPTRTRMDLLNERVGNKVPLIAVGSIHSADDALAVIENGIPLVAMGREILVDPNWTVKVKEGREKQIETVIKGTDKEKYHLPEPLWQAIVNTQGWVPYKD” showed a specific initial activity ([1]; co-solvent concentration (% v/v): 20, reaction temperature 30 °C) of 0.4 ± 0.03, a specific initial activity ([1]; co-solvent concentration (% v/v): 20, reaction temperature 35 °C) of 0.1 ± 0.02 and a specific initial activity ([1]; co-solvent concentration (% v/v): 20, reaction temperature 40 °C) of 0.03 ± 0.01. For the same sequence, the specific initial activity ([1]; co-solvent concentration (% v/v): 25, reaction temperature 25 °C) was 0.6 ± 0.01, the specific initial activity ([1]; co-solvent concentration (% v/v): 25, reaction temperature 30 °C) was 0.4 ± 0.02 and the specific initial activity ([1]; co-solvent concentration (% v/v): 25, reaction temperature 35 °C) was 0.05. For the same sequence, the specific initial activity ([1]; co-solvent concentration (% v/v): 25, reaction temperature 40 °C) was 0.02 ± 0.01, the specific initial activity ([1]; co-solvent concentration (% v/v): 30, reaction temperature 25 °C) was 0.55 ± 0.05 and the specific initial activity ([1]; co-solvent concentration (% v/v): 30, reaction temperature 30 °C) was 0.28 ± 0.06. For the same sequence, the specific initial activity ([1]; co-solvent concentration (% v/v): 30, reaction temperature 35 °C) was 0.04 ± 0.01, the specific initial activity ([1]; co-solvent concentration (% v/v): 30, reaction temperature 40 °C) was 0.03 ± 0.02 and the specific initial activity ([1]; co-solvent concentration (% v/v): 35, reaction temperature 25 °C) was 0.44 ± 0.01. It also gave a specific initial activity ([1]; co-solvent concentration (% v/v): 35, reaction temperature 30 °C) of 0.21 ± 0.01, a specific initial activity ([1]; co-solvent concentration (% v/v): 35, reaction temperature 35 °C) of 0.02 ± 0.01 and a specific initial activity ([1]; co-solvent concentration (% v/v): 35, reaction temperature 40 °C) of 0.02 ± 0.02. For the same sequence, the specific initial activity ([1]; co-solvent concentration (% v/v): 40, reaction temperature 25 °C) was 0.2 ± 0.01, the specific initial activity ([1]; co-solvent concentration (% v/v): 40, reaction temperature 30 °C) was 0.11 ± 0.03 and the specific initial activity ([1]; co-solvent concentration (% v/v): 40, reaction temperature 35 °C) was 0.07 ± 0.03. For the same sequence, the specific initial activity ([1]; co-solvent concentration (% v/v): 40, reaction temperature 40 °C) was 0.03 ± 0.01, the specific initial activity ([1]; co-solvent concentration (% v/v): 45, reaction temperature 25 °C) was 0.04 and the specific initial activity ([1]; co-solvent concentration (% v/v): 45, reaction temperature 30 °C) was 0.04 ± 0.01. For the same sequence, the specific initial activity ([1]; co-solvent concentration (% v/v): 45, reaction temperature 35 °C) was 0.04 ± 0.02, the specific initial activity ([1]; co-solvent concentration (% v/v): 45, reaction temperature 40 °C) was 0.05 ± 0.03 and the melting temperature ([2]; co-solvent: 2-propanol, co-solvent concentration (% v/v): 0) was 54 °C. The melting temperature ([2]; co-solvent: 2-propanol, co-solvent concentration (% v/v): 5) was 46 °C, the melting temperature ([2]; co-solvent: 2-propanol, co-solvent concentration (% v/v): 10) was 39.3 ± 1.1 °C and the melting temperature ([2]; co-solvent: 2-propanol, co-solvent concentration (% v/v): 15) was 39.3 ± 4.5 °C. The melting temperature ([2]; co-solvent: 2-propanol, co-solvent concentration (% v/v): 20) was 33.7 ± 0.58 °C, the melting temperature ([2]; co-solvent: 2-propanol, co-solvent concentration (% v/v): 25) was 32.7 ± 1.1 °C and the melting temperature ([2]; co-solvent: 2-propanol, co-solvent concentration (% v/v): 30) was 33.7 ± 0.58 °C. For the same sequence, the melting temperature ([2]; co-solvent: dimethyl sulfoxide, co-solvent concentration (% v/v): 0) was 54 °C, the melting temperature ([2]; co-solvent: dimethyl sulfoxide, co-solvent concentration (% v/v): 5) was 51.7 ± 0.58 °C and the melting temperature ([2]; co-solvent: dimethyl sulfoxide, co-solvent concentration (% v/v): 10) was 51 °C. It also gave a melting temperature ([2]; co-solvent: dimethyl sulfoxide, co-solvent concentration (% v/v): 15) of 50 °C, a melting temperature ([2]; co-solvent: dimethyl sulfoxide, co-solvent concentration (% v/v): 20) of 50 °C and a melting temperature ([2]; co-solvent: dimethyl sulfoxide, co-solvent concentration (% v/v): 25) of 49.7 ± 0.58 °C. It also gave a melting temperature ([2]; co-solvent: dimethyl sulfoxide, co-solvent concentration (% v/v): 30) of 49.7 ± 0.58 °C, a melting temperature ([2]; co-solvent: ethanol, co-solvent concentration (% v/v): 0) of 54 °C and a melting temperature ([2]; co-solvent: ethanol, co-solvent concentration (% v/v): 5) of 51 ± 1 °C. It also gave a melting temperature ([2]; co-solvent: ethanol, co-solvent concentration (% v/v): 10) of 45.3 ± 1.1 °C, a melting temperature ([2]; co-solvent: ethanol, co-solvent concentration (% v/v): 15) of 42 ± 1 °C and a melting temperature ([2]; co-solvent: ethanol, co-solvent concentration (% v/v): 20) of 38.7 ± 0.58 °C. It also gave a melting temperature ([2]; co-solvent: ethanol, co-solvent concentration (% v/v): 25) of 38.3 ± 0.58 °C, a melting temperature ([2]; co-solvent: ethanol, co-solvent concentration (% v/v): 30) of 36.3 ± 0.58 °C and a melting temperature ([2]; co-solvent: methanol, co-solvent concentration (% v/v): 0) of 54 °C. It also gave a melting temperature ([2]; co-solvent: methanol, co-solvent concentration (% v/v): 5) of 52.3 ± 0.58 °C, a melting temperature ([2]; co-solvent: methanol, co-solvent concentration (% v/v): 10) of 49.7 ± 0.58 °C and a melting temperature ([2]; co-solvent: methanol, co-solvent concentration (% v/v): 15) of 43.7 ± 2.5 °C. For the same sequence, the melting temperature ([2]; co-solvent: methanol, co-solvent concentration (% v/v): 20) was 44.3 ± 0.58 °C, the melting temperature ([2]; co-solvent: methanol, co-solvent concentration (% v/v): 25) was 42.3 ± 1.1 °C and the melting temperature ([2]; co-solvent: methanol, co-solvent concentration (% v/v): 30) was 40 ± 3.6 °C. For the same sequence, the melting temperature ([2]; co-solvent: n-propanol, co-solvent concentration (% v/v): 0) was 54 °C, the melting temperature ([2]; co-solvent: n-propanol, co-solvent concentration (% v/v): 5) was 43.7 ± 2.1 °C and the melting temperature ([2]; co-solvent: n-propanol, co-solvent concentration (% v/v): 10) was 33 ± 1 °C. For the same sequence, the melting temperature ([2]; co-solvent: n-propanol, co-solvent concentration (% v/v): 15) was 31.3 ± 0.58 °C, the melting temperature ([2]; co-solvent: n-propanol, co-solvent concentration (% v/v): 20) was 30.3 ± 0.58 °C and the melting temperature ([2]; co-solvent: n-propanol, co-solvent concentration (% v/v): 25) was 29.3 ± 0.58 °C. For the same sequence, the melting temperature ([2]; co-solvent: n-propanol, co-solvent concentration (% v/v): 30) was 30.3 ± 0.58 °C.
